# In patent publication US20220135638A1 (Takeda / Millennium, published 2022):
# Numbered stars: 1 amine (or outer) side, 2 acyl side, 3 side chain; on linkers, the order of the positions; unused ones are H or OH. Square brackets hold non-standard residues; d marks the D form. Primed or numbered codes have the meaning given here. Side chains are listed from the residue outwards. Ends that are not written are not given here. * marks the point of attachment. C20 diacid = O=C(O)CCCCCCCCCCCCCCCCCCC(=O)*; C18 diacid = O=C(O)CCCCCCCCCCCCCCCCC(=O)*; C16 diacid = O=C(O)CCCCCCCCCCCCCCC(=O)*; γGlu = O=C(O)[C@H](CCC(=O)[*:2])N[*:1]; Iva = CC[C@](C)(N)C(=O)O; PEG3′ = not defined here; Aib = CC(C)(N)C(=O)O
# T1: full-length human GIPR (GenBank NM_000164) with an N-terminal FLAG tag on HEK-293T cells (human), P48546
# T1 chain: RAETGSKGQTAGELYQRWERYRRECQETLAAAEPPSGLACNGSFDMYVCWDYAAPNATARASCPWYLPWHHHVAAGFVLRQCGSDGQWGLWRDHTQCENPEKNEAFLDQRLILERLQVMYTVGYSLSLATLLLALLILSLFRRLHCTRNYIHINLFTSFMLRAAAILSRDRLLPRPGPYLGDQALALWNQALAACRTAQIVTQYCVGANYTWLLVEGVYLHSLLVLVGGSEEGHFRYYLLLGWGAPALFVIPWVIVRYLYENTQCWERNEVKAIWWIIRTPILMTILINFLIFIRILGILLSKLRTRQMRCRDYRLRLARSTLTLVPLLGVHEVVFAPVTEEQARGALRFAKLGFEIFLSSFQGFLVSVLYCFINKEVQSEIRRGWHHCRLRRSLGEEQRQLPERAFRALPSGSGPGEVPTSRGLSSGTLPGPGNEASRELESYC
# T2: full-length human GLP-1R (GenBank NM_002062) with an N-terminal FLAG tag on HEK-293T cells (human), P43220
# T2 chain: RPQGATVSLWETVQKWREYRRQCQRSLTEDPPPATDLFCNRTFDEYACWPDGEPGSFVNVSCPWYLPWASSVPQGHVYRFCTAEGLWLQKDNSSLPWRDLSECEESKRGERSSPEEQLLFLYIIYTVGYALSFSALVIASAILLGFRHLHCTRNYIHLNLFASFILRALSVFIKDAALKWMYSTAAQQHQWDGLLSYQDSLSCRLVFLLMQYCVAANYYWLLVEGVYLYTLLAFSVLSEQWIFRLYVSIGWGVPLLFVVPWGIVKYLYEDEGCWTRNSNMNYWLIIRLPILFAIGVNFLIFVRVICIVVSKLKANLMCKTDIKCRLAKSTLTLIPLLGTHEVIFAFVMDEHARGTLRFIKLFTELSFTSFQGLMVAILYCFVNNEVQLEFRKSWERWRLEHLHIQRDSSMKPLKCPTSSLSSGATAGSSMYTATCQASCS
# B1: Compound No. 461 (peptide)
# peptide: Y[Aib]EGTFISDYSIALDR[Aib]HQ[Aib]NFVNW[Iva]LAQRPSSGAPPK([Gly-Gly-Gly-Gly-Gly-γGlu-C20 diacid])S
# modifications: ends and bridges not checked
# B2: Compound No. 460 (peptide)
# peptide: Y[Aib]EGTFISDYSIALDR[Aib]HQ[Aib]NFVNW[Iva]LAQRPSSGAPPK([Gly-Gly-Gly-Gly-Gly-γGlu-C18 diacid])S
# modifications: ends and bridges not checked
# B3: Compound No. 443 (peptide)
# peptide: Y[Aib]EGTFISDYSIALDR[Aib]HQ[Aib]NFVNW[Iva]LAQRPK([Gly-Gly-Gly-Gly-Gly-γGlu-C20 diacid])SGAPPPS
# modifications: ends and bridges not checked
# B4: Compound No. 445 (peptide)
# peptide: Y[Aib]EGTFISDYSIALDR[Aib]HQ[Aib]NFVNW[Iva]LAQRPSK([Gly-Gly-Gly-Gly-Gly-γGlu-C18 diacid])GAPPPS
# modifications: ends and bridges not checked
# B5: Compound No. 450 (peptide)
# peptide: Y[Aib]EGTFISDYSIALDR[Aib]HQ[Aib]NFVNW[Iva]LAQRPSSGK([Gly-Gly-Gly-Gly-Gly-γGlu-C16 diacid])PPPS
# modifications: ends and bridges not checked
# B6: Compound No. 454 (peptide)
# peptide: Y[Aib]EGTFISDYSIALDR[Aib]HQ[Aib]NFVNW[Iva]LAQRPSSGAK([Gly-Gly-Gly-Gly-Gly-γGlu-C18 diacid])PPS
# modifications: ends and bridges not checked
# B7: Compound No. 446 (peptide)
# peptide: Y[Aib]EGTFISDYSIALDR[Aib]HQ[Aib]NFVNW[Iva]LAQRPSK([Gly-Gly-Gly-Gly-Gly-γGlu-C20 diacid])GAPPPS
# modifications: ends and bridges not checked
# B8: Compound No. 459 (peptide)
# peptide: Y[Aib]EGTFISDYSIALDR[Aib]HQ[Aib]NFVNW[Iva]LAQRPSSGAPPK([Gly-Gly-Gly-Gly-Gly-γGlu-C16 diacid])S
# modifications: ends and bridges not checked
# B9: Compound No. 464 (peptide)
# peptide: Y[Aib]EGTFISDYSIALDR[Aib]HQ[Aib]NFVNW[Iva]LAQRPSSGAPPPK([Gly-Gly-Gly-Gly-Gly-γGlu-C20 diacid])
# modifications: ends and bridges not checked
# B10: Compound No. 453 (peptide)
# peptide: Y[Aib]EGTFISDYSIALDR[Aib]HQ[Aib]NFVNW[Iva]LAQRPSSGAK([Gly-Gly-Gly-Gly-Gly-γGlu-C16 diacid])PPS
# modifications: ends and bridges not checked
# B11: Compound No. 444 (peptide)
# peptide: Y[Aib]EGTFISDYSIALDR[Aib]HQ[Aib]NFVNW[Iva]LAQRPSK([Gly-Gly-Gly-Gly-Gly-γGlu-C16 diacid])GAPPPS
# modifications: ends and bridges not checked
# B12: Compound No. 447 (peptide)
# peptide: Y[Aib]EGTFISDYSIALDR[Aib]HQ[Aib]NFVNW[Iva]LAQRPSSK([Gly-Gly-Gly-Gly-Gly-γGlu-C16 diacid])APPPS
# modifications: ends and bridges not checked
# B13: Compound No 913 (peptide)
# peptide: Y[Aib]EGTFISDYSIALDR[Aib]HQ[Aib]NFVNW[Iva]LAQRK([PEG3′-PEG3′-C20 diacid])SSGAPPPSR
# modifications: ends and bridges not checked
# Biological target: T1, full-length human GIPR (GenBank …)
# Assay: cell-based or functional assay
row,Binder,GIP EC50(pM)
1,B1,1.3 pM
2,B2,0.44 pM
3,B3,0.86 pM
4,B4,0.38 pM
5,B5,0.4 pM
6,B6,1.14 pM
7,B7,0.85 pM
8,B8,0.41 pM
9,B9,1.29 pM
10,B10,0.6 pM
11,B11,0.39 pM
12,B12,0.31 pM

# Biological target: T2, full-length human GLP-1R (GenBank …)
# Assay: cell-based or functional assay
row,Binder,GLP EC50
1,B1,> 1000 nM
2,B2,> 1000 nM
3,B3,977 nM
4,B4,> 1000 nM
5,B13,575 nM
6,B5,> 1000 nM
7,B6,> 1000 nM
8,B7,891 nM
9,B8,> 1000 nM
10,B9,977 nM
11,B10,> 1000 nM
12,B11,> 1000 nM
13,B12,> 1000 nM
